# Test results reported in ChEMBL document CHEMBL2429837, “Identification of cryptotanshinone as an inhibitor of oncogenic protein tyrosine phosphatase SHP2 (PTPN11)” (J Med Chem, 2013).
# B1: Tyrosine-protein phosphatase non-receptor type 11 (Homo sapiens), Q06124 (protein)
# chain: MTSRRWFHPNITGVEAENLLLTRGVDGSFLARPSKSNPGDFTLSVRRNGAVTHIKIQNTGDYYDLYGGEKFATLAELVQYYMEHHGQLKEKNGDVIELKYPLNCADPTSERWFHGHLSGKEAEKLLTEKGKHGSFLVRESQSHPGDFVLSVRTGDDKGESNDGKSKVTHVMIRCQELKYDVGGGERFDSLTDLVEHYKKNPMVETLGTVLQLKQPLNTTRINAAEIESRVRELSKLAETTDKVKQGFWEEFETLQQQECKLLYSRKEGQRQENKNKNRYKNILPFDHTRVVLHDGDPNEPVSDYINANIIMPEFETKCNNSKPKKSYIATQGCLQNTVNDFWRMVFQENSRVIVMTTKEVERGKSKCVKYWPDEYALKEYGVMRVRNVKESAAHDYTLRELKLSKVGQGNTERTVWQYHFRTWPDHGVPSDPGGVLDFLEEVHHKQESIMDAGPVVVHCSAGIGRTGTFIVIDILIDIIREKGVDCDIDVPKTIQMVRSQRSGMVQTEAQYRFIYMAVQHYIETLQRRIEEEQKSKRKGHEYTNIKYSLADQTSGDQSPLPPCTPTPPCAEMREDSARVYENVGLMQQQKSFR
# How the values were obtained:
# Conditions in all cases: Homo sapiens; 25 uM
# [1] = substrate: C[C@H]1COC2=C1C(=O)C(=O)c1c2ccc2c1CCCC2(C)C
# [2] = substrate: C[C@H]1COC2=C1C(=O)C(=O)c1c2ccc2c1CCCC2(C)C; remark: listed apart in the source
# [3] = substrate: C[C@H]1COC2=C1C(=O)C(=O)c1c2ccc2c1CCCC2(C)C; remark: listed apart in the source
# [4] = substrate: C[C@H]1COC2=C1C(=O)C(=O)c1c2ccc2c1CCCC2(C)C; remark: listed apart in the source
protein,measurement,setting,value
B1,kcat/Km,[1],2150 M⁻¹ s⁻¹
same,kcat,[2],0.36 s⁻¹
same,Vmax,[3],6.96 µM/min
same,Km,[4],170 µM
